Measurements as given in paper PMC8458281, “Computational modeling and experimental validation of the EPI-X4/CXCR4 complex allows rational design of small peptide antagonists” (Communications Biology, 2021).

Experiments:
CXCR4 D97T = assay: 12G5 antibody competition, 293T cells transfected with CXCR4 D97T; assay type: binding, human; settings: IC50 on CXCR4 D97T relative to wt
Method: Fig. 4 The interactions of EPI-X4 and the EPI-X4 derivatives WSC02 and JM#21 with point-mutated CXCR4 were assessed by an antibody competition assay. Amino acid substitutions were introduced in the sequence of CXCR4 by site-directed mutagenesis, cloned into an IRES-eGFP expression vector, and transfected into 293 T cells. Afterward, cells were incubated with serially diluted EPI-X4 (a, b), WSC02 (c, d), or JM#21 (e, f) in presence of a constant concentration of CXCR4 specific antibody (clone 12G5). After 2 h, bound antibody was analyzed by flow cytometry. a, c, e) Representative dose-dependent replacement of 12G5 antibody by peptides. b, d, f) IC50 values were calculated by nonlinear regression. Shown are data derived from at least three individual experiments ± SEM. IC50 values were set to 1000 µM (EPI-X4 and WSC02) or 100 µM (JM#21) if the value exceeds the maximally used concentration. *p ≤ 0.05, ***p ≤ 0.001 (one-way ANOVA for comparison with wt). For IC50 values see Table 1. For all binding curves see also Fig. S8.
Mutated CXCR4 constructs were transfected into 293 T cells that have a very low endogenous expression level of wild-type CXCR4. Transfected cells were then analyzed for CXCR4 surface expression (Fig. S5a) and EPI-X4 binding using a flow cytometry-based antibody competition assay (Fig. S5b, c)[33]. […]

[1] = target: T1, CXCR4 wt (transfected 293T cells) (human, UniProt P61073-1 1-352); assay: flow cytometry on cells; 12G5 antibody competition on 293T cells transiently transfected with CXCR4 wt or mutants (IRES-eGFP vector), eGFP-positive cells gated; serially diluted peptide with a constant concentration of CXCR4 antibody clone 12G5, 2 h; bound antibody read; IC50 by nonlinear regression; settings: one partner purified
T1 construct: human CXCR4, isoform 1 or b; eGFP is expressed separately from an IRES, not fused; also called wild-type CXCR4; source: 293T cells, transiently transfected (pcDNA3.1 CXCR4-IRES-eGFP), on cells

CXCR4 D97E = target: T2, CXCR4 D97E (human, UniProt P61073-1 1-352, D97E); assay: as above; settings: one partner purified
T2 construct: human CXCR4, isoform 1 or b; source: 293T cells, transiently transfected (pcDNA3.1 CXCR4-IRES-eGFP), on cells

CXCR4 D97S = target: T3, CXCR4 D97S (human, UniProt P61073-1 1-352, D97S); assay: as above; settings: one partner purified
T3 construct: human CXCR4, isoform 1 or b; source: 293T cells, transiently transfected (pcDNA3.1 CXCR4-IRES-eGFP), on cells

CXCR4 D97Q = target: T4, CXCR4 D97Q (human, UniProt P61073-1 1-352, D97Q); assay: as above; settings: one partner purified
T4 construct: human CXCR4, isoform 1 or b; source: 293T cells, transiently transfected (pcDNA3.1 CXCR4-IRES-eGFP), on cells

CXCR4 V112L = target: T5, CXCR4 V112L (human, UniProt P61073-1 1-352, V112L); assay: as above; settings: one partner purified
T5 construct: human CXCR4, isoform 1 or b; source: 293T cells, transiently transfected (pcDNA3.1 CXCR4-IRES-eGFP), on cells

CXCR4 D187E = target: T6, CXCR4 D187E (human, UniProt P61073-1 1-352, D187E); assay: as above; settings: one partner purified
T6 construct: human CXCR4, isoform 1 or b; source: 293T cells, transiently transfected (pcDNA3.1 CXCR4-IRES-eGFP), on cells
T6 sequence (P61073 whole entry D187E, canonical isoform): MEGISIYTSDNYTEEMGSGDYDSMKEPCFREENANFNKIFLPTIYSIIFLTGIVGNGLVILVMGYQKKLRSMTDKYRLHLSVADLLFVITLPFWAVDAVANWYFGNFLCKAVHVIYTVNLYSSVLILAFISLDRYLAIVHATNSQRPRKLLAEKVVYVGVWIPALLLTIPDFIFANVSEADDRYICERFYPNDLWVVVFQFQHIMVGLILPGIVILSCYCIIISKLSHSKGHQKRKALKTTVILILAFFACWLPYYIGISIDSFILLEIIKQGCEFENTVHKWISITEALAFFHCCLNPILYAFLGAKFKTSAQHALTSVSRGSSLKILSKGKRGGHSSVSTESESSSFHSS

T1 sequence (P61073 whole entry, the tested form may be a part, canonical isoform): as the sequence (P61073 whole entry D187E, canonical isoform) above, with E187D counted along it
T2 sequence (P61073 whole entry D97E, canonical isoform): as the sequence (P61073 whole entry D187E, canonical isoform) above, with D97E, E187D counted along it
T4 sequence (P61073 whole entry D97Q, canonical isoform): as the sequence (P61073 whole entry D187E, canonical isoform) above, with D97Q, E187D counted along it
T5 sequence (P61073 whole entry V112L, canonical isoform): as the sequence (P61073 whole entry D187E, canonical isoform) above, with V112L, E187D counted along it
T3 sequence (P61073 whole entry D97S, canonical isoform): as the sequence (P61073 whole entry D187E, canonical isoform) above, with D97S, E187D counted along it

IC50 [1] [µM] | IC50 (CXCR4 D97E) [µM] | IC50 (CXCR4 D97S) [µM] | IC50 (CXCR4 D97Q) [µM] | IC50 (CXCR4 V112L) [µM] | IC50 (CXCR4 D187E) [µM] | Molecule | Fold change (CXCR4 D97T)
– | – | – | – | – | – | IVRWSKKVPCVS [WSC02, first-generation C-terminally truncated 12-mer derivative of EPI-X4 with four substitutions] | 31
6.99 | 129 | 785 | > 1000 | 41.1 | 8.52 | LVRYTKKVPQVSTPTL (source: synthetic peptide (Fmoc solid-phase synthesis, HPLC-purified)) [EPI-X4 (Alb408-423)] | –
